# According to the DeepSol protein solubility set:
# Assay: soluble on expression in E. coli; label from the status in PepcDB or PDB records
row,Sequence,soluble on expression in E. coli
1,MSLNPNVQECSFEETIEAHLFANGYASLPASDYDAALALFPTSVLTFVRATQLKEWAKLEALHGANTEATVLKDLTHWLDTHGTLAVLRNGFKCYGRTLRVAYFKPAHGMNPELAAQYAANRVGVIRQLRYSQRNTNELDLVLSINGIPVFTAELKNPMTGQTVTNAIAQYQHDRDHREPLFEFKRRALVHFAVDTEQVFMTTRLAGSATHFLPFNKGLDGGAGNPPDPAGRAYRTAYLWEEVWQRDSLLDIFARFIHLQVEEKRTDDGRKIKKETMIFPRYHQLRAVRELEDAARTEGPGHNYLVEHSAGSGKSNTIGWLAHRLASLHNESDHKVFDSVIVITDRRVLDRQLQDTIYQFEHRQGVVQKIDEDSRQLAEALTNSVPIIISTLQKFPFVARQLARMAEERREGADGILPTRRCAVIIDEAHSSQSGETATDLKEVLGGHVLREEAARYAVDEGVDNLDELYRSMAKRGRQTNLSFFAFTATPKHKTLAVFGRDEAGKAGQPFHRYTMSQAIEEGFIMDVLKNYTTYATYYKLVKASEDDPNVERKQAAKALARFMRLHPYNIAQKTEVMVEHFNAVTRHKVGGKAKAMVVTGSRLEAVRYKLAFDAYIREKGYSWIKTLVAFSGEVVDDELPGKTWTEVGMNGGIKEGVLPEKFDSSEYQVLLVAEKYQTGYDQPLLHTMYVDKRLAGIQAVQTLSRLNRMHPLKEDTFVLDFVNDRQEIKEAFKQYHEGAEMGEEADPNQMYAIKAELDASGIYLLEEMQRFIGIYFKPKQRQSPADHQAMNEGHHHHHH,not soluble
2,MGSDKIHHHHHHMDTRIRDFVKTNECYFAVNTYYHPENSVISFLRYINIDKIGNHLLKDYELDENDIRILNGERFIKVADSSKAYAILKEYYPEYLFYDEINDVLLHAVPKTNIKEILSPQKRLEEVLNEQNTEAEIKCAKLADTLHDYGLEYKNMGVSGSTVLKLNNENSDIDFVIYGMEKHKIAREILSVTFKDGVLEPLSEDFWKKAYVKRIKDGTLTYDEFVWHEKRKLNRGVVDGVMFDLLATREWDEITENYGDKKYKNLGFIQIKAKVKDDTFVFDNPAVYKVENVEILNNENNAEVLASEIEEVVSFTHTYAGSTYNGEEIIVRGKLEEVSGKETYKRVVVGTTREAFNEYVKLAK,not soluble
3,MKIVTTVQEMQHITKELRASGKSIGFVPTMGYLHEGHATLLRKAREENEIVVLSVFVNPLQFGPNEDLDRYPRDIDRDENVAKENGVDYLFYPSVEEMYPAEQTTTVEVVKRTDVLCGKQRPGHFAGVATVLMKLFNITLPTRAYFGMKDAQQVAVIEGFVADFNIPVIIVPVDIVREEDGLAKSSRNVYLSQKERKEAPHLYRSLCMAKERIEAGERNAEIITTLVKEYIETYTKGTVDYADLYAYPSLQVVDQIEGRIILAIAVKFENVRLIDNITLTVK,not soluble
4,MSLNPKQVSQKLANKPKDRPIAFVSKPDSLTQCLTPVFTNSEGYVSVSDCEEAIDARYDVFSRIAWKLRDGWVCLSAENEKYNQGKRLILRPCVIDDKTQSFTIKDNMLYTPDLRFVVRIANGFLTLQKSQSKGAQSNLILHNMQEWLDTIATPAPLMQKGFIAWKFISPQGFDVYYLRNNESIKNDPQELYFNLENGIIAQYDSASAKMFCLTSKQNAKQDWNWASWEECLQQNLRENKAAPSKLNAQNWKLFMFADNDSAMLKDYLGNFLRVTKYGSNWGVPYTAKADYLAKDTNEGQTSYFQFRHDMQDWERFKNANLSDSLPTCPANGSYAKNLKASVKLPPSFVLTQEWKKRLWQIATTTDGVLERAGDCGVCLLHSYQMIAEMNEYTATPLESGGFFFDTAFGRNPFTSFRARYPMLAASLEQYRASNTPPGLSRSAVFAYAAQMYRAIALSLFPGHFWLSSEFATSDVTIRSALRDLFQQPAGTLWVVQMYYVARDGSFNGHGMPVLRTGDGIQFIPTNLTNMNYEGYERALSNSFAHNLREAYNVVTRNGTLNLYMLYSLRLREIYPNPINAFVSNNNCSGEGEDRRGTRNMPLSRFINQCASGRCVLQEGHHHHHH,not soluble
5,MSLDKIMNEAISPWMKGDGPDSDIVLSSRIRLARNFKQYQFSTMQNEEEAQKVQELFKKKFINKAVEPFGKFGLLKMNELTPLQRRVLVEKHLISPNLAGTEYGACLLSESEHISVMLNEEDHIRIQCLFPGLQLSKALQSANQIDNWIEKEVEYAFDESLGYITSCPTNVGTGLRASVMIHLPGLVLTKRISRIIQVIQKLGLVVRGIYGEGSEALGNIFQVSNQMTLGKSEEDIIADLKSVMQQIIQQEKLARELIVQNSSIELEDKVYRSYGILANSRLIQSAEAATCLSDVRLGIDLGYIKGISRNILTELMVLTQPGILQQYAGGPLGPEERDYRRATLIRERLRIEKN,not soluble
6,MEKLGLEHVCGDLNTEVEHGFTCDLLSEVLGKAQPSTLWITVQSHVNIIAVATVVGIKGIVLCDGHEYEKDTVKKAEENGVVLLKSQENSFIVSGKVYELGLRLEHHHHHH,not soluble
7,MSFFKKLKEKISKQTDTVTEKFKQGLEKTRNSFADKVNDLVFRYRKVDEDFFEELEEILIGADVGVSTVMELIDQLKEEVQRRNIQDPREVQAVISEKLIEIYKGDSDFTNEVNMQKDGLTVVLFVGVNGVGKTTTIGKMAHKFKSEGKSVLLAAGDTFRAGAIEQLEVWGDRVGVEVIKQGSGSDPAAVMYDAVQAAKARNVDVLLCDTAGRLQNKVNLMKELEKVKRVIEREVPGAPHEVLLVIDATTGQNGLSQAKTFREATNVTGIVLTKLDGTAKGGIVLAIRNEMDVPVKFVGLGEQMDDLQQFDPEQYVYGLFANLVETEEV,not soluble
8,MGSDKIHHHHHHMLEKKARIADEAEIVDEAIVSRRSVRAFLPDMIDDDTIRDILEVAARAPSGTNMQPWRVYVTKGETKQQISDAILNSGIRAEKADWDEYRYYPTQFFEPYLTRRRANGFGLYGALGIGRREVDKMRAQHDRNFVFFDAPVGMIFTIDRRLNQGSWIDYGMFLQNIMVAARGRGLHTCPQAAFAPYHRQIRPVLNIPDEEIVVCGMALGYEDTSKPENAFRTDRVPLEEWVTFSE,not soluble
9,MTVRILAVCGNGQGSSMIMKMKVDQFLTQSNIDHTVNSCAVGEYKSELSGADIIIASTHIAGEITVTGNKYVVGVRNMLSPADFGPKLLEVIKAHFPQDVK,not soluble
10,MFCVRCGSSDSELYEGLCRDCFLEDYSILRIPDRIEVRVCSHCRAKFISGQWLDEGLPDEEIVYRALEDSISWDEPVENPEIELEIMQERGTIYRCLVEVDAEVLGKRLSQEYEVEVRITNTVCPTCSKQSSGYYEAVIQLRADGRELAETEIETADRVVQRTLLKLSRRDKLAYLPQRVEVKEGVDYYIGSHKSARKVVDAIREKLGGITMESPRLMGQDKSTGKGLYRTWISLRLANFRVGDFLSHHNRILAVIDLRKKGVSVRDLETREVKNILWGEYEDMDVVGRADDVKTTTVTSRSPGMIQILHPETFEPVDLEADSYTSTLDIGEQVPVIEIDKRLYIIEDEAEELEHHHHHH,soluble
11,QSRGEKRTAHNAIEKRYRSSINDKIIELKDLVVGTEAKLNKSAVLRKAIDYIRFLQHSNQKLKQENLSLRTAVHKSKSLKDL,soluble
12,MELNMLYLFTASNDSAIKNLEATIEKIYPISTCLADLDADTVTKLKDNELHENVCMWGATPGSSNVDRWEKLKEGDRILAYSKGEFKFFGTIFAKTHNPDVARKI,not soluble
13,MRQDDLKLLGKIVTTHGIRGQLKVASFSGEFDTILSLETVVLKGKDGRMETFPVARATVHHDRVLLSLTPFTNINEVLHLISAVSYAHRDQFPPLEEGEYYWCDLIGLQVVTAAGTVIGRLDSILPTESHDVYVVRGADREYLIPAVEDVVVQVDLEAGTMTVSPPEGLLDLLEHHHHHH,soluble
14,MVERLTIIRGVEKFELQTKTARWVLAKEEGYSPVQMLVSAIGACGGYVYQSVLENSHIPFEFEKIEVTYSREVERRAQPLKQVTILFYVTVPEAFQERATRCLKLVSPNCPVIQSLAERITVEETVVFKK,not soluble
15,MPVTEVGSLPELNNILERSDANRLIIIDFFANWCGPCRMISPIFEQFSAEYGNATFLKVNCDVARDIVQRYNISAMPTFIFLKNRQQVDMVRGANQQAIAEKIRQHYSPTPANPNAASDSEKRFLEQFVKCSNVPRSYQDEVFKALARSVMPEELVGRAMTEGPRDEKAILKDLLHWFKTQFFTWFDRPTCPKCTLKCSTDGLQGTPTREEQKEGGASRVEVYICDGCNTEMRFPRYNNPAKLLQTRTGRCGEWANCFGLLLAALNLESRFIYDTTDHVWNEVYLLAEQRWCHVDPCENTMDRPLLYTRGWGKTLGYCIGYGSDHVVDVTWRYIWDSKKLVTQRNEVRQPVFENFLSKLNSRQAEGQTEPRKRELAVRRVCELMEMMAQEAKNHKIGWEKIGDDLGGRITGSEEWRRERGELGESGPKLLAEPIKLAPPTGPAQNYLEFNYDVITDTYSQPPEIGFSAQAFELENVQRVEETDWNMTYLCRKRGDAPGNISWHFDLKSLKKSIEKIEIRMAGIQKFEKGKAMAIACLGDSCMRLPIDCSALTIEDPKNAEILKITATLSGGEGAIGFQQAQIFRTELKRGGGARTESFSVKIWMKN,not soluble
16,MGSDKIHHHHHHMFSGIAHCADCGSKLYYCTTRYFETRHDHFRCSASQKAVDPCTSHFIRAVVLEEMVLAHMRYVIGFVQRYEDSFRVSIEAERSTEIQKELSAKRKQIAQSQKRVDDLDVLFRKVYEDNASGKLTDERFMQLSRGYDLEQKTLRQMITMLEKEIDQQEQKTTQVEDFIAKCKRYSSLETLTPAILNDLVIKVFVEAPDKSTGKRRQGIHISYNLVGILPPLERFQPVVVERPNKEKAETA,not soluble
17,MGSDKIHHHHHHMEIELKTLGNYKAILGESPVYDREGNRLFWVDIDGKKVIVNNLDTNEEKYYDTPDLVTSLCLIDYKRIIVTLRHGFHTLNLTTGEITPYLELENNGENRFNDGKCDIRDRYWAGTMNLHIENPKPTASLYKLEGQRLTKVLDKLYRSNGLGWDPDNKLFYLIDTPLRKVFQFDFDKDKGDIYNKRIVMDFKYEPGRPDGMTIDEEGYLWIAHSAGGKVSRWNPKNGEKVSEIKLPVLYVSSVTFGSPEMNQIFITTMSKGGEPLAGRLFTAKMNIKGLQSYKFLT,not soluble
18,MSNPQPEKVRVVVGDDHPLFREGVVRALSLSGSVNVVGEADDGAAALELIKAHLPDVALLDYRMPGMDGAQVAAAVRSYELPTRVLLISAHDEPAIVYQALQQGAAGFLLKDSTRTEIVKAVLDCAKGRDVVAPSLVGGLAGEIRQRAAPVAPVLSAREREVLNRIACGQSIPAIAAELYVAPSTVKTHVQRLYEKLGVSDRAAAVAEAMRQRLLD,soluble
19,MAKATYACVECGYRTPKPLGRCPSCGSWESFQEVAPAPASRRAKPSPLPLLALSQVDEAEERRFSSGLSEVDRVLGGGFVTGEVVLLGGEPGVGKSTLLLEMAKRMPQRVYYVAGEESPAQIKLRAQRLGVKDLLLVRETRLEPLLALLEEDPPEVLFVDSVQTLEAGGSPGSLVAVREATSALVRFAKESGAAVVLVGHVTKEGVVAGPKSVEHAVDATLYLETAGPYRVLRSAKNRFGPVGEIGVFRMEEAGLLEVENPSEAFLKERPLGVPGSAVALALAGERALALEVQALAAKTPFPAPRRVVQGLDSRRVDVVLAVLERRLGLPLANLDIYVNLAGGLKVQDPGLDLAVALAVYSAVVGRPLPADLALVGEVGLAGEVRRVAGLERRLREGERAGFGRFLHPGNLKRLQEAVEAYLALEHHHHHH,not soluble
20,MGSSHHHHHHSSGLVPRGSHMYLINQNGWIEVICGSMFSGKSEELIRRVRRTQFAKQHAIVFKPCIDNRYSEEDVVSHNGLKVKAVPVSASKDIFKHITEEMDVIAIDEVQFFDGDIVEVVQVLANRGYRVIVAGLDQDFRGLPFGQVPQLMAIAEHVTKLQAVCSACGSPASRTQRLIDGEPAAFDDPIILVGASESYEPRCRHCHAVPTKQR,soluble
